Assay results reported in patent US20250000988A1, “EPHA2 BICYCLIC PEPTIDE LIGAND AND CONJUGATE THEREOF” (priority 2021, published 2025).
Like-named read-outs stand apart in the source and are kept apart here. Numbered stars: 1 amine (or outer) side, 2 acyl side, 3 side chain; on linkers, the order of the positions; unused ones are H or OH. Bridge positions count the residues as written; N and C are the ends. Square brackets hold non-standard residues; d marks the D form. Peptide text beside a SMILES is read from it. I, II: the chains in the order shown. * marks the point of attachment. X3 = O=C(CCCC(=O)NCCC(=O)[*:1])NCCOCCOCCN(CC(=O)[*:2])CC(=O)[*:3]; TATA = O=C(CC[*:1])N1CN(C(=O)CC[*:2])CN(C(=O)CC[*:3])C1; Dolaproine = CO[C@@H]([C@@H]1CCCN1)[C@@H](C)C(=O)O; Dil = CC[C@H](C)[C@H](NC)[C@@H](CC(=O)O)OC; X2 = O=C(CCCC(=O)[*:2])NCCC(=O)[*:1]; PABC = O=C(OCc1ccc(N[*:1])cc1)[*:2]; X1 = C[C@@H](N*)[C@@H](O)c1ccccc1; Hyp = O=C(O)[C@@H]1C[C@@H](O)CN1; hArg = N=C(N)NCCCC[C@H](N)C(=O)O; Cit = NC(=O)NCCC[C@H](N)C(=O)O; NMeV = CN[C@H](C(=O)O)C(C)C; hCys = N[C@@H](CCS)C(=O)O; Sar = CNCC(=O)O

How the values were obtained:
PC3 cells = test: PC3 cell proliferation inhibition assay; assay type: cell-based, human
Procedure: PC3 cell culture conditions: RPMI-1640+10% FBS+1% penicillin-streptomycin solution. The cells were cultured in a 37° C., 5% CO2 incubator. On the first day, the PC3 cells in the exponential growth phase were collected and plated in a 96-well cell culture plate at a density of 500 cells/well (90 μL/well). The cells were cultured overnight in a 37° C., 5% CO2 incubator. The next day, 10 μL of the compound at different concentrations was added to each well so that the final concentration of DMSO in each well was 0.1%. The mixture was cultured in a 37° C., 5% CO2 incubator for 3 days. After the completion of culture, 50 μL of detection solution (Cell Viability Assay, Promega, G7573) was added to each well. The mixture was mixed uniformly for 2 minutes and incubated at room temperature for 10 minutes. The chemiluminescence reading was detected by a microplate reader. The results were processed according to formula (1), the proliferation inhibition rate of the compound at different concentrations was calculated, and the IC50 value of the compound with an inhibition rate of 50% was calculated using origin9.2 software, wherein RLUcompound was the readout of the treated group, and RLUcontrol was the average value of the solvent control group.

[1] = system: PC3 cells subcutaneous transplanted tumor; test: Mouse PC3 cells subcutaneous in vivo transplanted tumor model; set-up: species or system CB-17 SCID mice; conditions: 0.5 mg/kg intravenously, once a week, 35 days
Procedure: Human prostate cancer PC3 cells were placed in an RPMI-1640 medium (supplemented with 10% fetal bovine serum and 1% penicillin-streptomycin solution) and cultured at 37° C. Conventional digestion treatment with trypsin was carried out twice a week for passage. When the cell saturation was 80%-90%, and the number reached the requirement, the cells were collected, counted, and inoculated. Male CB-17 SCID mice (from Beijing Vital River Laboratory Animal Technology Co., Ltd.) were subcutaneously inoculated with 0.1 mL (2×10^6) of PC3 cells (plus matrigel, with the volume ratio of 1:1) on the right back. When the average tumor volume reached about 80-120 mm^3, grouping and administration were performed (marked as Day 0). For the solvent group, 50 mM of acetic acid and 10% sucrose solution (pH=5) were administered; and for the administration group, 0.5 mg/kg of compound 2, compound 4 or compound 13 was intravenously administered. The administration frequency was once a week and the administration cycle was 35 days (Day 0-Day 34). After grouping, the tumor diameter was measured twice a week with a vernier caliper. The formula for calculating the tumor volume was: V=0.5×a×b^2, where a and b represented the long and short diameters of the tumor, respectively. The tumor inhibitory effect of the compound was evaluated by TGI (%)= [1−(average tumor volume at the end of administration in the treatment group-average tumor volume at the beginning of administration in the treatment group)/(average tumor volume at the end of treatment in the solvent control group-average tumor volume at the beginning of treatment in the solvent control group)]×100%. The tumor growth curve and the animal body weight change curve were as shown in FIG. 1 and FIG. 2, respectively.

MOLP8 cells = test: MOLP8 cell proliferation inhibition assay; assay type: cell-based, human; conditions: MOLP8 cells (EphA2 negative cell), incubated 5 days
Procedure: Human multiple myeloma MOLP8 cells purchased from DSMZ were placed in complete RPMI-1640 medium (supplemented with 20% fetal bovine serum) and cultured at 37° C. and 5% CO2. The cells in the exponential growth phase were collected, and the cell suspension was adjusted to 8000 cells/135 μL with the culture medium. 135 μl of the cell suspension was added to each well of a 96-well cell culture plate and incubated overnight. The next day, compounds at different concentrations were added, and the plate was placed in the incubator and incubated for 5 days. After the completion of culture, according to operation instructions for a CellTiter-Glo kit (Promega, Cat #G7573), 75 μL of CTG solution, which was already pre-melted and equilibrated to room temperature, was added to each well, and the mixture was uniformly mixed for 2 minutes using a microplate shaker. The plate was placed at room temperature for 10 minutes, and then […] signal values were measured using an Envision 2104 plate reader (PerkinElmer). The cell proliferation inhibition rate was calculated according to the formula [(1−(RLUcompound−RLUblank)/(RLUcontrol−RLUblank))×100%]. The IC50 value was obtained by four-parameter nonlinear fitting using GraphPad Prism software.

[2] = Pharmacokinetic test in monkeys; conditions: cynomolgus monkey, in vivo, iv, monkey plasma; for AUC(0-t) / Cmax / half-life: 1 mg/kg
Procedure: 4.1 Experimental animals: male cynomolgus monkeys, 3-5 kg, 3-6 years old, 3 monkeys/compound. Purchased from Suzhou Xishan Biotechnology Inc.
4.2 Experimental method: on the day of the test, 3 monkeys were randomly grouped according to their body weights. The animals were fasted with water available for 14 to 18 h one day before the administration, and were fed 4 h after the administration.
Solvent for intravenous administration: 5% DMA+95% (20% SBE-CD).
Before and after the administration, 1.0 mL of blood samples were drawn from the limb veins and placed in an EDTAK2 centrifuge tube. Centrifugation was carried out at 5000 rpm at 4° C. for 10 min, and the plasma was collected. The blood collection time points for the intravenous administration group were: 0, 2 min, 5 min, 15 min, 30 min, 1 h, 2 h, 4 h, 6 h, 8 h, and 24 h. Before analysis and detection, all samples were stored at −80° C., and a quantitative analysis of samples was performed using LC-MS/MS.

[3] = Pharmacokinetic test in rats; set-up: species or system SD rats; conditions: in vivo, iv, rat plasma, i.v. 1 mg/kg, analyte PDC
Procedure: 3.1 Experimental animals: male SD rats, about 220 g, 6-8 weeks old, 3 rats/compound. Purchased from Chengdu Ddossy Experimental Animals Co., Ltd.
3.2 Experimental design: on the day of the test, 3 SD rats were randomly grouped according to their body weights. The animals were fasted with water available for 12 to 14 h one day before the administration, and were fed 4 h after the administration.
Before and after the administration, 0.15 m1 of blood was taken from the orbit of the animals under isoflurane anesthesia and placed in an EDTAK2 centrifuge tube. The blood was centrifuged at 5000 rpm and 4° C. for 10 min to collect plasma. The blood collection time points for the intravenous administration group and intragastric administration group were: 0, 5 min, 15 min, 30 min, 1 h, 2 h, 4 h, 6 h, 8 h and 24 h. Before analysis and detection, all samples were stored at −80° C., and a quantitative analysis of samples was performed using LC-MS/MS.

[4] = i.v. 1 mg/kg of compound 4, analyte MMAE

## CC[C@H](C)[C@@H]([C@@H](CC(=O)N1CCC[C@H]1[C@H](OC)[C@@H](C)C(=O)N[C@H](C)[C@@H](O)c1ccccc1)OC)N(C)C(=O)[C@@H](NC(=O)[C@H](C(C)C)N(C)C(=O)OCc1ccc(NC(=O)[C@H](CCCNC(N)=O)NC(=O)[C@@H](NC(=O)CCCC(=O)NCCC(=O)N(C)CC(=O)N(C)CC(=O)N(C)CC(=O)N(C)CC(=O)N(C)CC(=O)N(C)CC(=O)N(C)CC(=O)N(C)CC(=O)N(C)CC(=O)N(C)CC(=O)N[C@@H](C)C(=O)N[C@@H](CCCCNC(=N)N)C(=O)N[C@@H](CC(=O)O)C(=O)N[C@H]2CSCCC(=O)N3CN4CN(C3)C(=O)CCSC[C@H](NC(=O)[C@H](CC(C)C)NC(=O)[C@@H]3CCCN3C(=O)[C@H](CC(N)=O)NC(=O)[C@H](C(C)C)NC(=O)[C@H](CC(C)C)NC(=O)[C@@H]3C[C@@H](O)CN3C2=O)C(=O)N[C@@H](CC(C)C)C(=O)N[C@@H](Cc2c[nH]cn2)C(=O)N2CCC[C@H]2C(=O)N[C@H](CC(=O)O)C(=O)N[C@@H](Cc2c[nH]c3ccccc23)C(=O)N[C@@H](CCCCNC(=N)N)C(=O)N[C@H](C(N)=O)CCSCCC4=O)C(C)C)cc1)C(C)C [Compound 2] (I: [Sar][Sar][Sar][Sar][Sar][Sar][Sar][Sar][Sar][Sar]A[hArg]DC[Hyp]LVNPLCLHP[dD]W[hArg][hCys]-NH2 / II: V[Cit][PABC][NMeV]V[Dil][Dolaproine]-X1; linker I:14-I:21-I:28 via TATA; linker I:N-II:N via X2)
PC3 cells; read-out: IC50 value
  IC50: 3.1 nM
[1]
  tolerability: well tolerated

## CC[C@H](C)[C@@H]([C@@H](CC(=O)N1CCC[C@H]1[C@H](OC)[C@@H](C)C(=O)N[C@H](C)[C@@H](O)c1ccccc1)OC)N(C)C(=O)[C@@H](NC(=O)[C@H](C(C)C)N(C)C(=O)OCc1ccc(NC(=O)[C@H](CCCNC(N)=O)NC(=O)[C@@H](NC(=O)CCCC(=O)NCCC(=O)N(C)CC(=O)N(C)CC(=O)N(C)CC(=O)N(C)CC(=O)N(C)CC(=O)N(C)CC(=O)N(C)CC(=O)N(C)CC(=O)N(C)CC(=O)N(C)CC(=O)N[C@@H](C)C(=O)N[C@@H](CCCCNC(=N)N)C(=O)N[C@@H](CC(=O)O)C(=O)N[C@H]2CCSCCC(=O)N3CN4CN(C3)C(=O)CCSC[C@H](NC(=O)[C@H](CC(C)C)NC(=O)[C@@H]3CCCN3C(=O)[C@H](CC(N)=O)NC(=O)[C@H](C(C)C)NC(=O)[C@H](CC(C)C)NC(=O)[C@@H]3C[C@@H](O)CN3C2=O)C(=O)N[C@@H](CC(C)C)C(=O)N[C@@H](Cc2c[nH]cn2)C(=O)N2CCC[C@H]2C(=O)N[C@H](CC(=O)O)C(=O)N[C@@H](Cc2c[nH]c3ccccc23)C(=O)N[C@@H](CCCCNC(=N)N)C(=O)N[C@H](C(N)=O)CSCCC4=O)C(C)C)cc1)C(C)C [Compound 4] (I: [Sar][Sar][Sar][Sar][Sar][Sar][Sar][Sar][Sar][Sar]A[hArg]D[hCys][Hyp]LVNPLCLHP[dD]W[hArg]C-NH2 / II: V[Cit][PABC][NMeV]V[Dil][Dolaproine]-X1; linker I:14-I:21-I:28 via TATA; linker I:N-II:N via X2)
PC3 cells; read-out: IC50 value
  IC50: 2.9 nM
MOLP8 cells
  IC50: 144 nM
[1]
  tolerability: well tolerated
[2]; [4]
  AUC(0-t): 20.8 ng·h/mL
  Cmax: 3.71 ng/mL
  half-life: 1460 min
[2]; i.v. 1 mg/kg, analyte PDC
  AUC(0-t): 3030 ng·h/mL
  Cmax: 7630 ng/mL
  half-life: 38.6 min
  clearance: 5.57 mL/min/kg
[2]; i.v. 1 mg/kg, analyte PDC, read-out: Vdss
  Vd: 0.179 L/kg
[3]
  AUC(0-t): 1470 ng·h/mL
  Cmax: 6530 ng/mL
  clearance: 11 mL/min/kg
  half-life: 16.3 min
[3]; read-out: Vdss
  Vd: 0.233 L/kg

## CC[C@H](C)[C@@H]([C@@H](CC(=O)N1CCC[C@H]1[C@H](OC)[C@@H](C)C(=O)N[C@H](C)[C@@H](O)c1ccccc1)OC)N(C)C(=O)[C@@H](NC(=O)[C@H](C(C)C)N(C)C(=O)OCc1ccc(NC(=O)[C@H](CCCNC(N)=O)NC(=O)[C@@H](NC(=O)CCCC(=O)NCCC(=O)N(C)CC(=O)N(C)CC(=O)N(C)CC(=O)N(C)CC(=O)N(C)CC(=O)N(C)CC(=O)N(C)CC(=O)N(C)CC(=O)N(C)CC(=O)N(C)CC(=O)N[C@@H](C)C(=O)N[C@@H](CCCCNC(=N)N)C(=O)N[C@@H](CC(=O)O)C(=O)N[C@H]2CCSCCC(=O)N3CN4CN(C3)C(=O)CCSC[C@H](NC(=O)[C@H](CC(C)C)NC(=O)[C@@H]3CCCN3C(=O)[C@H](CC(N)=O)NC(=O)[C@H](C(C)C)NC(=O)[C@H](CC(C)C)NC(=O)[C@@H]3C[C@@H](O)CN3C2=O)C(=O)N[C@@H](CC(C)C)C(=O)N[C@@H](Cc2c[nH]cn2)C(=O)N2CCC[C@H]2C(=O)N[C@H](CC(=O)O)C(=O)N[C@@H](Cc2c[nH]c3ccccc23)C(=O)N[C@@H](CCCCNC(=N)N)C(=O)N[C@H](C(N)=O)CCSCCC4=O)C(C)C)cc1)C(C)C [Compound 13] (I: [Sar][Sar][Sar][Sar][Sar][Sar][Sar][Sar][Sar][Sar]A[hArg]D[hCys][Hyp]LVNPLCLHP[dD]W[hArg][hCys]-NH2 / II: V[Cit][PABC][NMeV]V[Dil][Dolaproine]-X1; linker I:14-I:21-I:28 via TATA; linker I:N-II:N via X2)
[1]
  tolerability: well tolerated

## I: [Sar][Sar][Sar][Sar][Sar][Sar][Sar][Sar][Sar][Sar]A[hArg]D[hCys][Hyp]LVNPLCLHP[dD]W[hArg]C-NH2 / II: V[Cit][PABC][NMeV]V[Dil][Dolaproine]-X1 / III: V[Cit][PABC][NMeV]V[Dil][Dolaproine]-X1 (linker I:14-I:21-I:28 via TATA; linker I:N-II:N-III:N via X3) [Compound 17]
PC3 cells; 10 μM
  Max inh. % 10 μM: 69.4%
PC3 cells; cultured 3 days with compound, read-out: IC50
  IC50: ≤ 10 nM
PC3 cells; read-out: IC50 value
  IC50: 1 nM
